Values quoted from earlier work in PMC6934455, “Molecular Dynamics model of peptide-protein conjugation: case study of covalent complex between Sos1 peptide and N-terminal SH3 domain from Grb2” (Scientific Reports, 2019).

Target: Sos1 peptide (Homo sapiens) (UniProt Q07889)

Sequence of Grb2 N-terminal SH3 (P62993 1-58): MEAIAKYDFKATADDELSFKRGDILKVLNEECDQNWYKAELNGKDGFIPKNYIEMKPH

In the case of “Grb2 N-terminal SH3 (from UniProt P62993)”, the Kd is given as 3.5 µM.
